Data taken from US20200138969A1 (published 2020).

T1: human DLL3 (delta-like ligand 3), on the cell surface (human, UniProt Q9NYJ7 27-618)
T1 sequence: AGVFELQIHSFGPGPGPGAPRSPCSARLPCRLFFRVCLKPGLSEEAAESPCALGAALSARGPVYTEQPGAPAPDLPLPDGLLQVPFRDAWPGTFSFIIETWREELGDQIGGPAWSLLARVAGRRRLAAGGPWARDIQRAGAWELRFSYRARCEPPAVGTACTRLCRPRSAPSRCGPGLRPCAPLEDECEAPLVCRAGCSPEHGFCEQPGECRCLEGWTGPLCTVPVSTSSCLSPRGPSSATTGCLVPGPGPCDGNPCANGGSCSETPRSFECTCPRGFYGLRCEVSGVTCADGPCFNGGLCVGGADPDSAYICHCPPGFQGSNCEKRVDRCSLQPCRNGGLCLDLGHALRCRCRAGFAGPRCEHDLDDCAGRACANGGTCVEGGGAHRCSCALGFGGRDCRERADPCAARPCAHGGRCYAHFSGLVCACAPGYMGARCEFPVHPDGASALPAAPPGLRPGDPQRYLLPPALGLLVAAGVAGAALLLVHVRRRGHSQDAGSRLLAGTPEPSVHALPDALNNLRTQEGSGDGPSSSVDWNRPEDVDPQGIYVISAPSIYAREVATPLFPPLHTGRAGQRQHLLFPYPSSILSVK

B1: SC16.15 (antibody, V domains shown)
VH: QVQLQQSGAELAKPGASVKMSCKASGYTFTRYWIHWIKQRPGQGLEWIGYINPTTVYTEFNQNFKDKATLTADKSSTTASMQLSSLTSEDSAVYYCARGGSNFFDYWGQGTTLTVSS
VL: DIQMTQSPASLAASVGETVAITCRASENIYYNLAWYQQKQGKSPQLLIYTANSLEDGVPSRFSGSGSGTQYSLKINSMQPEDSATYFCKQAYDVPPTFGGGTKLEIK
B2: SC16.34 (antibody, V domains shown)
VH: QIQLVQSGPELKRPGETVKISCKASGYTFTNYGMNWVKQAPGKGLKWMGWINTYTGDPTYADDFKGRFAFSLETSASTAYLQINNLKNEDTATYFCARIGGNSPSDYWGQGTSLTVSS
VL: SIVMTQTPKFLLVSAGDRVTITCKASQSVSNDVAWYQQKPGQSPKLLIYYASNRYSGVPDRFTGSGYGTDFTFTISTVQAEDLAVYFCQQDYSSPWTFGGGTKLEIK

Molecular target: T1, human DLL3 (delta-like ligand 3), on …
Assay: cell-based or functional assay

Binder | EC50 of killing of OV26 (ovarian NET NTX tumor) cells with anti-mouse IgG Fab-saporin [nM]
B1 | 140
B2 | 5700
